This data set deals with the molecule itself. Kind of data set: cryo-EM structure.

B1: full-length phytochrome from Pseudomonas aeruginosa (PaBphP) (enzyme)
chain: MTSITPVTLANCEDEPIHVPGAIQPHGALVTLRADGMVLAASENIQALLGFVASPGSYLTQEQVGPEVLRMLEEGLTGNGPWSNSVETRIGEHLFDVIGHSYKEVFYLEFEIRTADTLSITSFTLNAQRIIAQVQLHNDTASLLSNVTDELRRMTGYDRVMAYRFRHDDSGEVVAESRREDLESYLGQRYPASDIPAQARRLYIQNPIRLIADVAYTPMRVFPALNPETNESFDLSYSVLRSVSPIHCEYLTNMGVRASMSISIVVGGKLWGLFSCHHMSPKLIPYPVRMSFQIFSQVCSAIVERLEQGRIAELLRVSTERRLALARRARDADDLFGALAHPDDGIAALIPCDGALVMLGGRTLSIRGDFERQAGNVLQRLQRDPERDIYHTDNWPQPSEDSPDGGDCCGVLAIRFHRQESGWIFWFRHEEVHRIRWGGKPEKLLTIGPSGPRLTPRGSFEAWEEVVRGHSTPWSETDLAIAEKLRLDLMELCLNHAAEVDRMRQRLIAVLGHDLRNPLQSISMAAALLSSSDTRTTELRQHISASSSRMERLVSQILDMSRLQSGIGLTVNPVDTDVSQLVRQIVCETDVAYPGLVIEIAIDPQVRAVVDPDRYAQVAANLLSNARHHGLPGRPVLVTLTRQGDEVCLSVLNETSGLSEAQLANLFEPFKRESADNQRNRNGLGIGLYISQAIAQAHQGRIDVDCRDDVITFCLRLPVRQAETGSSS
modifications: biliverdin chromophore (15Z in Pr, 15E in Pfr)
Regarding B1, the “stoichiometry N” value came to 2.

Source of the values: article doi:10.1101/2024.05.17.594632 (bioRxiv, 2024).
